Assay results published in patent US20210171950, “METHOD OF PRODUCING AN APTAMER AND USES THEREOF” (City University of Hong Kong, published 2021).

Biological target: T1, RHAU53 peptide (DHX36/RHAU residues 53-106 as printed) (UniProt Q9H2U1 SEQ:1-53)
T1 sequence: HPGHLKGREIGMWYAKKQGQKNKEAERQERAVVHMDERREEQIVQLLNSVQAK
Experiment: EMSA; 80 nM RHAU53, 2 nM FAM-D-TERRA; 25 mM Tris-HCl pH 7.5, 150 mM KCl, 1 mM MgCl2, 37 C; gel with 40 mM KOAc; complex formation inhibited by L-RNA Ap3-7 (SEQ 19, binds the TERRA RNA) with IC50 937.1±1.7 nM
Conditions: tags: peptide obtained from OriGene; label: 5'FAM; G4 (3 G-quartets, UUA loops)
Protocol: L-RNA Ap3-7 and S′FAM labelled D-RNA TERRA were heated at 75° C. for 3 minutes and cooled down separately. Then, reaction mixtures containing 2 nM 5′FAM labelled D-TERRA, 25 mM Tris-HCl (pH 7.5), 150 mM KCl and 1 mM MgCl₂ were prepared. Corresponding amount of L-Ap3-7 and 80 nM RHAU53 were premixed, then added to the specific samples and incubated at 37° C. for 30 minutes. The final samples were loaded onto a native PAGE (6%, 49:1), containing 40 mM KOAc, 1 mM MgCl₂ and 0.5×TBE (pH 8.3), and run at 30 mA for 75 minutes.
To study if L-Ap3-7 can compete with rG4-binding protein and inhibit the D-TERRA rG4-protein complex formation, the inventors have tested it with RHAU53 peptide. Particularly, L-RNA Ap3-7 and S′FAM labelled D-RNA TERRA were heated at 75° C. for 3 minutes and cooled down separately. Then, reaction mixtures containing 2 nM 5′FAM labelled D-TERRA, 25 mM Tris-HCl (pH 7.5), 150 mM KCl and 1 mM MgCl₂ were prepared. Corresponding amount of L-Ap3-7 and 80 nM RHAU53 were premixed, then added to the specific samples and incubated at 37° C. for 30 minutes. The final samples were loaded onto a native PAGE (6%, 49:1), containing 40 mM KOAc, 1mM MgCl₂ and 0.5 X TBE (pH 8.3), and run at 30 mA for 75 minutes. […]

B1: D-TERRA rG4 (ssRNA)
RNA: UUAGGGUUAGGGUUAGGGUUAGGG
binding result: binds
